Data: patent publication US20220220215A1 (CRESCENDO BIOLOGICS, published 2022)

Columns and labels:
[1] = molecular target: T1, recombinant Fc-tagged ectodomain of human CD137 (Acro Biosystems 41B-H5258) (human, UniProt Q07011 24-186); experiment: SPR, Biacore 8K, single-cycle kinetics; Fc-tagged ectodomain captured on Protein G chip; 1:1 model
T1 construct: Bought protein; not shown: Fc tag
Experimental: (§1) Binding of Humabody® VH constructs was measured using a single-cycle kinetics method using the BIAcore 8K instrument with 90 second sample injections with a sample concentration range of low nanomolar to high nanomolar. […] The Protein G sensor surface was regenerated with a 20 second injection of 10 mM Glycine buffer, pH 1.5 (GE Healthcare BR100354). Data were analysed using a 1:1 binding model in Biacore Insight Evaluation software, including Humabody® VH constructs with two PD-1 arms.

[2] = molecular target: T2, recombinant Fc-tagged ectodomain of human PD1 (Acro Biosystems PD1-H5257) (human, UniProt Q15116 25-170); experiment: as above
T2 construct: Bought protein; not shown: Fc tag
Experimental: as §1

[3] = molecular target: human CD137 expressed on cells (Jurkat human CD137 NF-kB luciferase reporter cells; human CD8+ T cells) (human, UniProt Q07011 24-255); experiment: cell-based or functional assay
[4] = molecular target: T3, Rhesus CD137-Fc tagged protein (rhesus, UniProt H9Z8K9 24-186); experiment: BLI (Octet RED384), CD137-Fc on Protein G sensor, 1:1 model
T3 construct: extracellular domain; The Octet paragraph gives no catalogue number; also called rhCD137-Fc
Experimental: Binding kinetics of purified monovalent VH molecules were measured on a ForteBio Octet RED 384 instrument. Human and Rhesus CD137-Fc tagged protein was diluted to 5 μg/ml in kinetics buffer (0.05% Tween, 1×PBS) and coupled to Protein G biosensors (ForteBio cat no. 18-5082) via the Fc tag. VH were serially diluted (typically 1:2 dilution series starting with 200 nM, VH at the highest concentration) and binding to the CD137-Fc-coupled Protein G biosensors measured. Binding kinetics were determined from the (blank subtracted) sensor gram trace using 1:1 binding models and ForteBio Octet Data Analysis 9.0 software. Example kinetic and binding affinity data obtained is shown Table 18 (monovalent VH).

[5] = molecular target: T4, human CD137 expressed on CHO cells (human, UniProt Q07011 18-255); experiment: FMAT/Mirrorball on CHO huCD137 cells
T4 construct: also called CHO huCD137; CHO human CD137 cells
Experimental: Binding of His-tagged molecules to CHO human CD137, CHO parent and CHO human PD1 cells was assessed using Fluorescence Microvolume Assay Technology (FMAT). All reagents were prepared in FMAT assay buffer (pH 7.4) containing PBS, 0.1% Bovine Serum Albumin, 0.05% Sodium Azide. […] Fluorescence emission was then measured on the TTP Mirrorball plate reader in the FL2 (502 nm-537 nm) and FL5 (677-800 nm) channels following excitation at 488 nm and 640 nm. Data was gated on FL5 perimeter and peak intensity and the FL2 median mean fluorescence intensity of the gated data used for determination of VH binding. Monovalent CD137 specific Humabody® VH, and trispecific molecules with a CD137 binding arm bound to CHO CD137 expressing cells. Trispecific Humabody® VH, with a PD1 binding arm bound to PD1 expressing cells.

| Binder | Kd [1] | koff [1] | kon [1] | Kd [2] | koff [2] | kon [2] | Jurkat-CD137/CHO-PD-1 Reporter Assay EC50 [3] | Kd [4] | koff [4] | kon [4] | EC50 [5] |
| --- | --- | --- | --- | --- | --- | --- | --- | --- | --- | --- | --- |
| TPP-1409 CD137A-1GS-HSA2-1GS-PD138G7(G109D) (bispecific antibody) EVQLVESGGGLVQPGGSLRLSCAASGFTLSNYWMNWVRQAPGKGLEWVANINQDGSERYYVDSVKGRFTISRDNAKNSLYLQMNSLRAEDTAVYYCARGGEGYGVDHYGLDVSGQGTTVTVSSGGGGSEVQLVESGGGLVKPGGSLRLSCAASGFTFSNYNMNWVRQAPGKGLEWVSSISSAGTHIYYADSVKGRFTISRDNAKNSLYLQMNSLRAEDTAVYYCARDPHSTGWYKDFDYWGQGTLVTVSSGGGGSEVQLVESGGGVVRPGGSLRLSCAASGFTFDDYAMSWVRQAPGKGLEWVSGITWNGGSTGYADSVKDRFTISRDNAKNSLYLQMNSLRAEDTALYYCVRDKYSYAWSYDDFDIWGQGTMVTVSS | 2.02 nM | 0.000307 s⁻¹ | 152000 M⁻¹ s⁻¹ | 4.16 nM | 0.00241 s⁻¹ | 580000 M⁻¹ s⁻¹ | 0.134 nM |  |  |  |  |
| TPP-951: PDA2-6GS-172E1-13-6GS-HSA3-His (bispecific antibody) EVQLVESGGGVVRPGGSLRLSCAASGFTFDDYAMSWVRQAPGKGLEWVSGITWNAGSTGYADSVKGRFTISRDNAKNSLYLQMNSLRAEDTALYYCVRDKYSYAWSYDDFDIWGQGTMVTVSSGGGGSGGGGSGGGGSGGGGSGGGGSGGGGSEVQLVESGGGVVQPGGSLRLSCAASGFTFSNYGMHWVRQAPGKGLEWVAVISNDGNTKTYADSVKGRFTISRDNSKNTLYLQMNSLRAEDTAVYYCAQDETTTVTASYYFDYWGQGTLVTVSSGGGGSGGGGSGGGGSGGGGSGGGGSGGGGSEVQLLESGGGLVKPGGSLRLSCAASGFTVSSYTMNWVRQAPGKGLEWVSSISSSGRYIYYADSVKGRFTISRDNAKNSLYLQMNSLRAEDTAVYYCARDPRMVGNPHEFDIWGQGTMVTVSSAAAHHHHHH |  |  |  |  |  |  | 14.1 nM |  |  |  |  |
| 003BB172-E01-5 (VHH, Human VH single domain antibody, monovalent) VHH: EVQLVESGGGLVQPGGSLRLSCAASGFTFSNYGMHWVRQAPGKRLEWVAVISNDGNTKTYADSVKGRFTISRDNSKNTLYLQMNSLRTEDTAVYYCAQDETTTVTASYYFDYWGQGTLVTVSS |  |  |  |  |  |  |  | 11.5 nM | 0.00164 s⁻¹ | 142000 M⁻¹ s⁻¹ | 1.29 nM |
| 003BB172-E01-6 (VHH, Human VH single domain antibody, monovalent; also called CD137B) VHH: EVQLVESGGGLVQPGGSLRLSCAASGFTFSNYGMHWVRQAPGKGLEWVAVISNDGNTKTYADSVKGRFTISRDNSKNMLYLQMNSLRTEDTAVYYCAQDETTTVTASYYFDYWGQGTLVTVSS |  |  |  |  |  |  |  | 39 nM | 0.00287 s⁻¹ | 73600 M⁻¹ s⁻¹ | 1.08 nM |
| 003BB172-E01-7 (VHH, Human VH single domain antibody, monovalent; also called CD137C) VHH: EVQLVESGGGLVQPGGSLRLSCAASGFTFSNYGMHWVRQAPGKGLEWVAVISNDGNTKTYADSVKGRFTISRDNSKNTLYLQMNSLRTEDTAVYYCAQDETTTVTASYYFDYWGQGTLVTVSS |  |  |  |  |  |  |  | 40.7 nM | 0.00233 s⁻¹ | 57300 M⁻¹ s⁻¹ | 1.28 nM |
| 003BB172-E01-8 (VHH, Human VH single domain antibody, monovalent) VHH: EVQLVESGGGVVQPGGSLRLSCAASGFTFSNYGMHWVRQAPGKGLEWVAVISNDGNTKTYADSVKGRFTISRDNSKNTLYLQMNSLRTEDTAVYYCAQDETTTVTASYYFDYWGQGTLVTVSS |  |  |  |  |  |  |  | 41.4 nM | 0.00269 s⁻¹ | 65000 M⁻¹ s⁻¹ | 1.08 nM |
| 003BB172-E01-9 (VHH, Human VH single domain antibody, monovalent) VHH: EVQLVESGGGLVQPGGSLRLSCAASGFTFSNYGMHWVRQAPGKGLEWVAVISNDGNTKTYADSVKGRFTISRDNSKNTLYLQMNSLRAEDTAVYYCAQDETTTVTASYYFDYWGQGTLVTVSS |  |  |  |  |  |  |  | 23 nM | 0.00235 s⁻¹ | 102000 M⁻¹ s⁻¹ | 0.849 nM |
| 003BB172-E01-10 (VHH, Human VH single domain antibody, monovalent) VHH: EVQLVESGGGLVQPGRSLRLSCAASGFTFSNYGMHWVRQAPGKGLEWVAVISNDGNTKTYADSVKGRFTISRDNSKNTLYLQMNSLRTEDTAVYYCAQDETTTVTASYYFDYWGQGTLVTVSS |  |  |  |  |  |  |  | 36.9 nM | 0.00249 s⁻¹ | 67400 M⁻¹ s⁻¹ | 1.22 nM |
| 003BB172-E01-11 (VHH, Human VH single domain antibody, monovalent) VHH: EVQLVESGGGVVQPGRSLRLSCAASGFTFSNYGMHWVRQAPGKGLEWVAVISNDGNTKTYADSVKGRFTISRDNSKNTLYLQMNSLRTEDTAVYYCAQDETTTVTASYYFDYWGQGTLVTVSS |  |  |  |  |  |  |  | 33.1 nM | 0.0024 s⁻¹ | 72500 M⁻¹ s⁻¹ | 1.21 nM |
| 003BB172-E01-12 (VHH, Human VH single domain antibody, monovalent) VHH: EVQLVESGGGLVQPGRSLRLSCAASGFTFSNYGMHWVRQAPGKGLEWVAVISNDGNTKTYADSVKGRFTISRDNSKNTLYLQMNSLRAEDTAVYYCAQDETTTVTASYYFDYWGQGTLVTVSS |  |  |  |  |  |  |  | 38.6 nM | 0.0023 s⁻¹ | 59700 M⁻¹ s⁻¹ | 1.21 nM |
| 003BB172-E01-13 (VHH, Human VH single domain antibody, monovalent; also called CD137D; 172E1-13) VHH: EVQLVESGGGVVQPGGSLRLSCAASGFTFSNYGMHWVRQAPGKGLEWVAVISNDGNTKTYADSVKGRFTISRDNSKNTLYLQMNSLRAEDTAVYYCAQDETTTVTASYYFDYWGQGTLVTVSS |  |  |  |  |  |  |  | 22.8 nM | 0.00253 s⁻¹ | 111000 M⁻¹ s⁻¹ | 0.954 nM |
| TPP-1408 PD138G7(G109D)-1GS-HSA2-1GS-CD137D (bispecific antibody) EVQLVESGGGVVRPGGSLRLSCAASGFTFDDYAMSWVRQAPGKGLEWVSGITWNGGSTGYADSVKDRFTISRDNAKNSLYLQMNSLRAEDTALYYCVRDKYSYAWSYDDFDIWGQGTMVTVSSGGGGSEVQLVESGGGLVKPGGSLRLSCAASGFTFSNYNMNWVRQAPGKGLEWVSSISSAGTHIYYADSVKGRFTISRDNAKNSLYLQMNSLRAEDTAVYYCARDPHSTGWYKDFDYWGQGTLVTVSSGGGGSEVQLVESGGGVVQPGGSLRLSCAASGFTFSNYGMHWVRQAPGKGLEWVAVISNDGNTKTYADSVKGRFTISRDNSKNTLYLQMNSLRAEDTAVYYCAQDETTTVTASYYFDYWGQGTLVTVSS | 95.1 nM | 0.00383 s⁻¹ | 40300 M⁻¹ s⁻¹ | 4.45 nM | 0.00113 s⁻¹ | 255000 M⁻¹ s⁻¹ |  |  |  |  |  |
| TPP-1410 PD138G7(G109D)-1GS-CD137A-6GS-HSA2 (bispecific antibody) EVQLVESGGGVVRPGGSLRLSCAASGFTFDDYAMSWVRQAPGKGLEWVSGITWNGGSTGYADSVKDRFTISRDNAKNSLYLQMNSLRAEDTALYYCVRDKYSYAWSYDDFDIWGQGTMVTVSSGGGGSEVQLVESGGGLVQPGGSLRLSCAASGFTLSNYWMNWVRQAPGKGLEWVANINQDGSERYYVDSVKGRFTISRDNAKNSLYLQMNSLRAEDTAVYYCARGGEGYGVDHYGLDVSGQGTTVTVSSGGGGSGGGGSGGGGSGGGGSGGGGSGGGGSEVQLVESGGGLVKPGGSLRLSCAASGFTFSNYNMNWVRQAPGKGLEWVSSISSAGTHIYYADSVKGRFTISRDNAKNSLYLQMNSLRAEDTAVYYCARDPHSTGWYKDFDYWGQGTLVTVSS | 1.47 nM | 0.000121 s⁻¹ | 81800 M⁻¹ s⁻¹ | 7.57 nM | 0.00224 s⁻¹ | 296000 M⁻¹ s⁻¹ |  |  |  |  |  |
| TPP-1411 PD138G7(G109D)-1GS-CD137A-1GS-HSA2 (bispecific antibody) EVQLVESGGGVVRPGGSLRLSCAASGFTFDDYAMSWVRQAPGKGLEWVSGITWNGGSTGYADSVKDRFTISRDNAKNSLYLQMNSLRAEDTALYYCVRDKYSYAWSYDDFDIWGQGTMVTVSSGGGGSEVQLVESGGGLVQPGGSLRLSCAASGFTLSNYWMNWVRQAPGKGLEWVANINQDGSERYYVDSVKGRFTISRDNAKNSLYLQMNSLRAEDTAVYYCARGGEGYGVDHYGLDVSGQGTTVTVSSGGGGSEVQLVESGGGLVKPGGSLRLSCAASGFTFSNYNMNWVRQAPGKGLEWVSSISSAGTHIYYADSVKGRFTISRDNAKNSLYLQMNSLRAEDTAVYYCARDPHSTGWYKDFDYWGQGTLVTVSS | 1.93 nM | 0.000208 s⁻¹ | 108000 M⁻¹ s⁻¹ | 4.98 nM | 0.00267 s⁻¹ | 537000 M⁻¹ s⁻¹ |  |  |  |  |  |
